Key:
[1] = biological target: T1, PSP (oligopeptidase B from Serratia proteomaculans) (Serratia proteamaculans, UniProt B3VI58); assay: differential scanning calorimetry; type: binding; settings: 2 mM spermine; 25 mM Na-phosphate, pH 7.8; 2 mg/mL protein
T1 construct: gene opdB; recombinant from E. coli BL21(DE3); 685 residues with tag; 76 kDa; monomer

[2] = biological target: T1, PSP (oligopeptidase B from Serratia proteomaculans); assay: initial rate of BAPNA hydrolysis; type: biochemical; settings: read-out: % inhibition at 5 mM
[3] = test system: N=C(N)NCCCC(NC(=O)c1ccccc1)C(=O)Nc1ccc([N+](=O)[O-])cc1; assay: purified protein; type: biochemical, Serratia proteamaculans; settings: 0.1 M Tris-HCl, pH 8.0, 2% DMSO, 25 °C
[4] = test system: N=C(N)NCCC[C@H](NC(=O)OCc1ccccc1)C(=O)N[C@@H](CCCNC(=N)N)C(=O)Nc1ccc([N+](=O)[O-])cc1; assay: purified protein; type: biochemical, Serratia proteamaculans; settings: 0.1 M Tris-HCl, pH 8.0, 2% DMSO, 25 °C
[5] = test system: N=C(N)NCCC[C@H](NC(=O)[C@H](CCCCN)NC(=O)OCc1ccccc1)C(=O)Nc1ccc([N+](=O)[O-])cc1; assay: purified protein; type: biochemical, Serratia proteamaculans; settings: 0.1 M Tris-HCl, pH 8.0, 2% DMSO, 25 °C

Compound	dTmax [1] [degree]	inhibition at 5000 µM [2] [%]	Km [3] [µM]	kcat [3] [s⁻¹]	kcat/Km [3] [M⁻¹ s⁻¹]	Km [4] [µM]	kcat [4] [s⁻¹]	kcat/Km [4] [M⁻¹ s⁻¹]	Km [5] [µM]	kcat [5] [s⁻¹]	kcat/Km [5] [M⁻¹ s⁻¹]
NCCCNCCCCNCCCN [spermine]	1	20									
PSP (oligopeptidase B from Serratia proteomaculans) (Serratia proteamaculans)			78.1	13.2	168000	4.35	36.4	8.35e+06	20.8	50.8	2.43e+06
